Patent US20220119502A1 (ANN AND ROBERT H LURIE CHILDREN S HOSPITAL OF CHICAGO, published 2022)
Positions count from the first letter of the chain named.

B1: KD8-1B10 (antibody, V domains shown)
VH: EVQLVESGGGLVQPGGSLRLSCAASGFTFSDHYMDWVRQVPRKGLEWVGRARNKANSYTTEYAASVKGRFTISRDDSKNSLYLQMNSLKSEDTAVYYCARFLLIADAFDIWGQGTMVTV
VL: DIQMTQSPSSLSASLGDRVTITCRASQGIRHDLGWYQQKPGKAPKLLIYGASTLQTGVPSRFSGSGSGTDFTLTISSLQPEDFATYYCLQKYNYPLTFGGGTKVEIK
B2: KD8-1D4 (antibody, V domains shown)
VH: B1 VH with H32Y, V40A, R42G, A51T, S90T, I104V
VL: B1 VL with L15V, H31N, T53S, T56S, F83I, K91E, N93T
B3: KD6-2B2 (antibody, V domains shown)
VH: EVQLVESGGGVAQPGTSLRLSCEASGFTFRDYAMRWVRQAPGKGLEWVAFIWNDGSKKYYTDSVRGRFTISRDNSKNMLYLQMDSLRAEDTALYYCARKMSEDDAFDLWGQGTMVTV
VL: DIQMTQSPSTLSASAGDRVTITCRASQSVSKYLAWYQQKPGKAPRLLIYKASSLQSGVPSRFSGSGSGTEFTLTISSLQPDDFATYYCQHYNTYPSWTFGQGTKVEIK
notes: also called rabbit KD6-2B2; KD36-2B32
B4: KD9-1B5 (antibody, V domains shown)
VH: QVQLQESGPGLVKPSETLSLTCTVSGGSINSYYWSWIRQPPGKGLEWIGYIYYSGSTNYNPSLKSRVTISVDTSKNQFSLRLSSVTAADTAVYYCARHPTAGTSYGMDVWGQGTTVTV
VL: QSALTQPASESGSPGQSITISCTGTTSDVGSYNLVSWYQQHPGKAPKLMIYEGTKRPSGVSNRFSGSKSGNTASLTISGLQPEDEADYYCCSYAGTTTYVFGTGTKVTVL
B5: KD6-1A10 (antibody, V domains shown)
VH: VQLVESGGGVVQPGRSLRLSCAASGFSFSNYFMHWVRHVPGKGLEWLATIWYDGSDKYYVDSVKGRFTISRDNSKNTLYLQMGSLRAEDTAMYYCAKGRQRGYYYDMGGYYVFDSWGQGTLVTVSS
VL: QSVLTQPPSASGTPGQGVTISCSGSRSNIGSNTVNWYRQFPGTAPKLLIYKNNQRPSGVPDRFSGSKPGTSAYLAITGLQSDDQADYYCAAWDDSLKGVVFGGGTKLTVL
B6: KD4-2H4 (rabbit version) (antibody, V domains shown)
VH: EVQLVESGGGLVQPGGSLRLSCAASGFTFSSYWMYWVRQAPGKGLVWVSRINSDGSTTNYADSVKGRFTISRDNAKNTLYLQMNSLRAEDTAVYFCARYAHLGIGWYFDLWGRGTLVTVSS
VL: QSALTQPRSVSGSPGQSVTISCTGTSSDVGGYNYVSWYQQHPGKAPKLMIYDVSKRPSGVPDRFSGSKSGNTASLTISGLQAEDEADYYCCSYAGSYTLLFGGGTKLTVL
notes: also called Rabbit KD4-2H4
B7: KD4-2H4 (human version) (antibody, V domains shown)
VH: B6 VH
VL: B6 VL
notes: also called human KD4-2H4

Tests used:
[1] = molecular target: T1, bovine serum albumin (Fraction V, Fisher BP1600) (bovine, UniProt P02769 25-607); test: polyreactivity ELISA
T1 construct: also called BSA

[2] = molecular target: KD peptide (NS4A peptide 2), BSA conjugated; test: ELISA
[3] = molecular target: multiple related peptides of hepacivirus C NS4A (animal virus peptide array); test: animal virus peptide array, 2.5 ug/ml
[4] = molecular target: integral membrane protein 2B (ITM2B) (human, UniProt Q9Y287 1-266); test: HuProt v4.0 human proteome array, 1 ug/ml
Chain of integral membrane protein 2B (ITM2B) (Q9Y287 whole entry): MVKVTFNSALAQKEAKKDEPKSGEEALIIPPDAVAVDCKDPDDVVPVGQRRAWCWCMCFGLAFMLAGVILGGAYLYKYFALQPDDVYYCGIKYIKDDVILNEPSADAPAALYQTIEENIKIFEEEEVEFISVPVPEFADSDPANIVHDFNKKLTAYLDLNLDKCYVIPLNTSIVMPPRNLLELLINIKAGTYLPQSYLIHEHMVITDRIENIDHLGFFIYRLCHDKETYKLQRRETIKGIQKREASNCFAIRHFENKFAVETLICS

T1 sequence (P02769 25-607 limits assumed): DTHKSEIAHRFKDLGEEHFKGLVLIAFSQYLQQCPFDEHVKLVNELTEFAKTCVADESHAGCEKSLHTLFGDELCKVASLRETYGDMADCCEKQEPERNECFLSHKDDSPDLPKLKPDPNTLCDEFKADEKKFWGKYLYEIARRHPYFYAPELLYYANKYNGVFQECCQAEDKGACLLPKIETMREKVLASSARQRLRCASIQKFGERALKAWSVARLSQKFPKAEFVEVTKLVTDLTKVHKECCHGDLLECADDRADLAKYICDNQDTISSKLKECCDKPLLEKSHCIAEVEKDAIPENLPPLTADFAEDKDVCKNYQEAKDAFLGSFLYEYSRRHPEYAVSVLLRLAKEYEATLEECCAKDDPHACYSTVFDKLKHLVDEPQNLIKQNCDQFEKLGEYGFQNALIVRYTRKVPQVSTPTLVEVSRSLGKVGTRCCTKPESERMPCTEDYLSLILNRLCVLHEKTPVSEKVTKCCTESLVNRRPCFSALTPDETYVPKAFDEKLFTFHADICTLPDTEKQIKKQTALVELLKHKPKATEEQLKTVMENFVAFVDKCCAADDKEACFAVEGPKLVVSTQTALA

| Binder | binding result [1] | other results |
| --- | --- | --- |
| B1 | no binding (tested: 10, 1, and 0.1 ug/ml) |  |
| B2 | no binding (tested: 10, 1, and 0.1 ug/ml) |  |
| B3 | no binding (tested: 10, 1, and 0.1 ug/ml) |  |
| B4 |  | OD450 (KD peptide minus scrambled peptide) [2]: < 0.04 OD |
| B5 | no binding (tested: 10, 1, and 0.1 ug/ml) |  |
| B6 | no binding (tested: 10, 1, and 0.1 ug/ml) | spot intensity (fluorescence units) (fluorescence units) [3]: > 200 |
| B7 |  | binding result [4]: binds |
